We go through one molecule from patent US20180044422A1 (NEW YORK UNIVERSITY, published 2018).

One test concerns the target T1, Galectin-3 (Biolegend) (Mus musculus (Mouse), UniProt P16110 2-264).
T1 construct: The sentence reads 'recombinant mouse Galectin-9 ..., Galectin-3, or Galectin-4'; whether 'mouse' also applies to Galectin-3 is not clear
Put plainly: ELISA, plate coated with Galectin-3, Dectin-1 IgG Fc at 2.5 µg/ml (concentration from paragraph 191, not on the sheet), detection with anti-IgG-HRP [cont.) I]. How it is done: (§1) To investigate if Galectin-9 can bind with Dectin-1, Protein G-magnet beads (2 ml; Dynabeads) were loaded with Dectin-1 IgG Fc (1 mg) or control IgG Fc before washing and blocking. Subsequently, beads were incubated with recombinant Galectin-9 ([…]; R&D Systems) for 30 min, washed, and stained with PE-conjugated anti-Galectin-9 (Biolegend, San Diego Calif.). Galectin-9 specific staining was determined by flow cytometry. To investigate the interaction between Galectin-9 and Dectin-1 by ELISA, plates (Maxisorp, Nunc, St. Louis, Mo.) were coated with recombinant mouse Galectin-9 ([…]; R&D Systems, Minneapolis, Minn.), Galectin-3, or Galectin-4 (both […]; Biolegend) for 16 hours at 4° C., blocked with 1% BSA/PBS for 1 hour, and incubated with increasing doses of Dectin-1 IgG Fc or control IgG Fc for 2 hours. The Galectin-bound Dectin-1 IgG Fc was detected with anti-IgG-HRP. […] Bead-bound precipitates were resuspended with loading buffer, resolved by SDS-PAGE under reduced conditions for western blotting using mAbs specific for Galectin-9. […] Dectin-1 signaling was measured by detection of secreted embryonic alkaline phosphatase. […] Syk phosphorylation was measured by flow cytometry at 3 hours.
A general note: In an ELISA, binding on a coated surface is turned into a signal by an enzyme label.

For the next test, the target named is T2, Galectin-4 (Biolegend) (Mus musculus (Mouse), UniProt Q8K419 1-326).
T2 construct: The sentence reads 'recombinant mouse Galectin-9 ..., Galectin-3, or Galectin-4'; whether 'mouse' also applies to Galectin-4 is not clear
T2 sequence: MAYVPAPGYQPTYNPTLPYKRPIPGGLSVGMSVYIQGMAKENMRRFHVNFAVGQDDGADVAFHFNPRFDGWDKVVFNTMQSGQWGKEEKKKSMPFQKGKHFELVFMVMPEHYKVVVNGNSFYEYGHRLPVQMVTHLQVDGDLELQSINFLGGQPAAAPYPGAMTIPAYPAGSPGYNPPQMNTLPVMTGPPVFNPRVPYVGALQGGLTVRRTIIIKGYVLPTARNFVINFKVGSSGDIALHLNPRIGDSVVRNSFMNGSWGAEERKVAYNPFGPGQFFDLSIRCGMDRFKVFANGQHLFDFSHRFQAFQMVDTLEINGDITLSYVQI
Description: ELISA, plate coated with Galectin-4, Dectin-1 IgG Fc at 2.5 µg/ml (concentration from paragraph 191, not on the sheet), detection with anti-IgG-HRP [cont.) I]. How it is done: as §1

T1 sequence (P16110 2-264 limits assumed): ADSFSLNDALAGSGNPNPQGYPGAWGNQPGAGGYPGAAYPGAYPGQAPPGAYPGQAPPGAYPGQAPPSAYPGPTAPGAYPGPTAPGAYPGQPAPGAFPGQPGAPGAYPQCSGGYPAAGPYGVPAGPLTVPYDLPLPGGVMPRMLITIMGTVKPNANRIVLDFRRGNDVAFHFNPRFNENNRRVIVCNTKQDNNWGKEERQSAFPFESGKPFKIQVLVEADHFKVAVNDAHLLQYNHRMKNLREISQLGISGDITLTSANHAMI

B1: human IgG Fc-conjugated Dectin-1 fusion protein (murine Dectin-1 IgG Fc; fc-mdec1a, InvivoGen) (Fc fusion, mouse, UniProt Q6QLQ4 69-244, looked up)
chain: EYGHNSGRNPEEKDNFLSRNKENHKPTESSLDEKVAPSKASQTTGGFSQPCLPNWIMHGKSCYLFSFSGNSWYGSKRHCSQLGAHLLKIDNSKEFEFIESQTSSHRINAFWIGLSRNQSEGPWFWEDGSAFFPNSFQVRNTAPQESLLHNCVWIHGSEVYNQICNTSSYSICEKEL
notes: Bought reagent (fc-mdec1a; InvivoGen); also called Dectin-1 Fc; not shown: human IgG Fc
Consider B1, for which the binding result with Galectin-3 (Biolegend) and with Galectin-4 (Biolegend) was “no binding (tested: 2.5 µg/ml)” each time.
